“Also recorded” adds a separate entry of the source.
How the values were obtained:
[1] = biological target: human insoluble aortic elastin (UniProt P15502)
[2] = biological target: human insoluble skin elastin (UniProt P15502)
fibrillin-1 = fibrillin-1 (UniProt P35555)
fibronectin = fibronectin (UniProt P02751)

Chain of fibrillin-1 (P35555 whole entry, looked up): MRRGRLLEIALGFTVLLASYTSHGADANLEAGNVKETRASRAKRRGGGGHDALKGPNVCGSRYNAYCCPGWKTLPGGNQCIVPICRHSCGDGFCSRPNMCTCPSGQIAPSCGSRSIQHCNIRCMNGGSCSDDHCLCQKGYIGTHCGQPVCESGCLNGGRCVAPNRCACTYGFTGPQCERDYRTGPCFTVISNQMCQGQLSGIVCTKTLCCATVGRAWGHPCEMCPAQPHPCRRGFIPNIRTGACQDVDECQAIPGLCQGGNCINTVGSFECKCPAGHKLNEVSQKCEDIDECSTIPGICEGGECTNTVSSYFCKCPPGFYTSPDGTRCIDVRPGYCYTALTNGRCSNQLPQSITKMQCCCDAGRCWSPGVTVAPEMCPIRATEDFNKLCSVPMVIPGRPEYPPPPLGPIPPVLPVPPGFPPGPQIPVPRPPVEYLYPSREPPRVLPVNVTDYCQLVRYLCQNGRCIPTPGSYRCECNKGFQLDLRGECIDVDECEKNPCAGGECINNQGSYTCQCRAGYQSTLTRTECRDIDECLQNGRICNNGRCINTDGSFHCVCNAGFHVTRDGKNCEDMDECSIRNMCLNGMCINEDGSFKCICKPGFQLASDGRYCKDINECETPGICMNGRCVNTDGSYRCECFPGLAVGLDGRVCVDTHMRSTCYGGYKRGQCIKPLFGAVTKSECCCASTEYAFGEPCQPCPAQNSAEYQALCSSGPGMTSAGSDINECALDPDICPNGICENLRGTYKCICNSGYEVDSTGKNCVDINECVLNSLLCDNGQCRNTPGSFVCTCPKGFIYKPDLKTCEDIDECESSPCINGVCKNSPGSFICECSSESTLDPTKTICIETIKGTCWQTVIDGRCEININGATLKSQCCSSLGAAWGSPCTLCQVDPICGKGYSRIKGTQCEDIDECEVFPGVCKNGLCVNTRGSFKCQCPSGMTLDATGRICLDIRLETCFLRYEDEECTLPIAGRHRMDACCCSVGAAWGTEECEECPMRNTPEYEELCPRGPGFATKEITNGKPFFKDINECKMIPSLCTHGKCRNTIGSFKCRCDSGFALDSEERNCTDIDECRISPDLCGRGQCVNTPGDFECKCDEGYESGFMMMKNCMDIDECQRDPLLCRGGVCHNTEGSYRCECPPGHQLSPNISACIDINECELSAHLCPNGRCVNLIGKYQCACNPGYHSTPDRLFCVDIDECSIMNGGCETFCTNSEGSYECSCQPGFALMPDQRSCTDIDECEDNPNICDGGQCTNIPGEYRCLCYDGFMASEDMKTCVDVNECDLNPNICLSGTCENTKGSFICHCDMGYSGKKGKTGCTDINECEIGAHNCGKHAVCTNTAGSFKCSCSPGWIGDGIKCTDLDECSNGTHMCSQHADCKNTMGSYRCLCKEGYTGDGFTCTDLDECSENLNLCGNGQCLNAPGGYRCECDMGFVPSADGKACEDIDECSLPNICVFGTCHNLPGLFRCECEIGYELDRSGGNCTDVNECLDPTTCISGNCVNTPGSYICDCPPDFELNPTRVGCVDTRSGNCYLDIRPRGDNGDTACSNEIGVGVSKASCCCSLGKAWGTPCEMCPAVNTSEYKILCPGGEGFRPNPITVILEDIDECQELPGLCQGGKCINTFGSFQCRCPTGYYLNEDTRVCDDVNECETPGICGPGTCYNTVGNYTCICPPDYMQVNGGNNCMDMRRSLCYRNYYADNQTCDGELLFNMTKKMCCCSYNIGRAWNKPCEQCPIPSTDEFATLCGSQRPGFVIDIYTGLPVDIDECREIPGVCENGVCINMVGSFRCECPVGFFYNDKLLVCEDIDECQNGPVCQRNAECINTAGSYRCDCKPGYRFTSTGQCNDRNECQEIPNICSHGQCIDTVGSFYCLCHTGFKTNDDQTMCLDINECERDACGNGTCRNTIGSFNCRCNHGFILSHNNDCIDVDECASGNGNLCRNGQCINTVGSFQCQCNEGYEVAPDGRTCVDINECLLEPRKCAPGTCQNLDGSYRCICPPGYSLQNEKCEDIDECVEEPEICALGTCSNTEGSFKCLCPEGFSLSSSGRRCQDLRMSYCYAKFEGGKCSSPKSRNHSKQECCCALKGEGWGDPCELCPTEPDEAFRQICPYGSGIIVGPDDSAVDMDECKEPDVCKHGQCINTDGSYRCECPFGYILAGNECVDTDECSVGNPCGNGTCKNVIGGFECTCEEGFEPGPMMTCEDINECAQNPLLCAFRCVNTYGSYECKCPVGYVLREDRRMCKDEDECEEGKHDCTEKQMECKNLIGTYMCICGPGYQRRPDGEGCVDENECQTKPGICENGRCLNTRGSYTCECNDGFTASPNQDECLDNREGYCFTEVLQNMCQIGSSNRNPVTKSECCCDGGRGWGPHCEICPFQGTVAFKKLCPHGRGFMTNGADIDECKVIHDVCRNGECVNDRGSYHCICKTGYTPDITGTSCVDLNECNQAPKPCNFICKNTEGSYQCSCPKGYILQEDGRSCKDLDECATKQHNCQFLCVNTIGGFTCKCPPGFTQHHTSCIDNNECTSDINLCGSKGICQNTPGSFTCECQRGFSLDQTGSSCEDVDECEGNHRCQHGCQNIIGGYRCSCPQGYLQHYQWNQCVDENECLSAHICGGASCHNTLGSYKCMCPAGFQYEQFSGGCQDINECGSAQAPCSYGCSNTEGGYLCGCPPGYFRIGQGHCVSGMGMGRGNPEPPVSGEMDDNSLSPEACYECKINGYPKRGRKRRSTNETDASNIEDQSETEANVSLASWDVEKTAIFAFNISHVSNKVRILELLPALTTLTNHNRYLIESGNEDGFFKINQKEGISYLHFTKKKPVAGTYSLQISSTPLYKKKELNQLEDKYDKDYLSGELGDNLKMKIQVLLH
Chain of human insoluble skin elastin (P15502 27-786): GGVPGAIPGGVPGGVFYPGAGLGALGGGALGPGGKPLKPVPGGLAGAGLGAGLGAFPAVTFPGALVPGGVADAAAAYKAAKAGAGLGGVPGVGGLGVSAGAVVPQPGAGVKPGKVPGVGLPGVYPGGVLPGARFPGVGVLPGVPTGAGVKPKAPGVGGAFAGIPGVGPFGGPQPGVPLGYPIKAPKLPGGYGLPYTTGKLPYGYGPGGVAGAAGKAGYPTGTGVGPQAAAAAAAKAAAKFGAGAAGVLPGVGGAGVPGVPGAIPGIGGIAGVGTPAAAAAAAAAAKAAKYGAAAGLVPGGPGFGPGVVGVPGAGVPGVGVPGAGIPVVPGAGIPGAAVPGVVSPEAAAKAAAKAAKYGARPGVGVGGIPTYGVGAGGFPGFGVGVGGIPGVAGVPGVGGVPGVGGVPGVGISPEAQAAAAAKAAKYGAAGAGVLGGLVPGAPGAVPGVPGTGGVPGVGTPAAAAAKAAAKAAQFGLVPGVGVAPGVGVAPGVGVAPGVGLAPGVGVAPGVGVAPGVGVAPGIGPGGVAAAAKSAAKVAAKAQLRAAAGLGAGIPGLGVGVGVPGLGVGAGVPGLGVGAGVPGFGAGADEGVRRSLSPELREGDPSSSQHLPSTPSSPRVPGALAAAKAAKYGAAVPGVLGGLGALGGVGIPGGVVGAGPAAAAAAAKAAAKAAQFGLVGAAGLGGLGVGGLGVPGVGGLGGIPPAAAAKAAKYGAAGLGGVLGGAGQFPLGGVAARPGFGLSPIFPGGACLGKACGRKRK
Chain of human insoluble aortic elastin (P15502 27-786): as above

With elastase the “radioactivity increase over background” value [1] was 7.7 fold for aortic elastin and the “radioactivity increase over background” value [2] was 14.9 fold for skin elastin.
For Granzyme A, the “cleavage fragments, fibrillin-1 Western blot of supernatant and ECM” value (fibrillin-1) was “showed fibrillin-1 cleavage fragments in the GrA supernatant, GrA ECM” and the “cleavage fragments, fibronectin Western blot of supernatants” value (fibronectin) was “supernatants treated with granzyme A for the indicated times were probed for fibronectin and several fragments were observed”.
For Trypsin, the “cleavage fragments, fibrillin-1 Western blot of supernatant and ECM” value (fibrillin-1) was “showed fibrillin-1 cleavage fragments in the GrA supernatant, GrA ECM, Trypsin supernatant, and Trypsin ECM; also recorded: showed fibrillin-1 cleavage fragments in the GrB supernatant, GrB ECM, Trypsin supernatant and Trypsin ECM”.
